# Measured values published in patent publication US20030180744, “High affinity oligonucleotide ligands to growth factors” (GILEAD SCIENCES, INC., published 2003).
# B1: T35/T36 equimolar (ssRNA)
# RNA 1: GGUGGUCUCCCAAUUCUAUUCUCCAUCGUAUC
# RNA 2: GGGAGGACGAUG
# modifications: 2'-F pyrimidines
# B2: 15F (ssRNA)
# RNA: GGGAGGACGAUGCGGUCAUGGUGUCUUUCCACAGCUCUUCCCAUGAUCGCCCGGCCAGACGACUCGCCCGA
# modifications: 2'-F pyrimidines
# B3: 6F (ssRNA)
# RNA: GGGAGGACGAUGCGGGAUCCUUUGUGGGCUCUUGUUGACCCCCUCGUUGUCCCCCCCAGACGACUCGCCCGA
# modifications: 2'-F pyrimidines
# B4: 14N (ssRNA)
# RNA: GGGAGGACGAUGCGGUCCAGGGAUUGAAGUGUCGGGGUAGGAACAUAAAGGCGGCCAGACGACUCGCCCGA
# modifications: 2'-NH2 pyrimidines
# B5: 20F (ssRNA)
# RNA: GGGAGGACGAUGCGGAGUAUUCCAGCCUGGAUUCAUAGUCAGUGCUCUCCGUGCCCAGACGACUCGCCCGA
# modifications: 2'-F pyrimidines
# B6: lib8-9 (ssRNA)
# RNA: GGGGGAGAACGCGGAUCCGCAAUCCCAGGCGCAUAGCUUCCGAGUAGACAGGAGGGAGGGGUGGAUGUGGCGUCUACUCGGCGUCGUGAAGCUUCGCUCUAGAUCUCCCUUUAGUGAGGGUUA
# modifications: 2'-NH2 pyrimidines
# B7: lib8-9* (ssRNA)
# RNA: B6 RNA
# modifications: 2'-NH2 U, 2'-F C
# B8: lib5-7 (ssRNA)
# RNA: GGGGGAGAACGCGGAUCCGAGCAAGCCCUGGCAUAGCUUCCGAGUAGACAGGAGGGAGGGGUGGAUGUGGCGUCUACUCGGUGUCGUGAAGCUUCGCUCUAGAUCUCCCUUUAGUGAGGGUUA
# modifications: 2'-NH2 pyrimidines
# B9: 21A (ssRNA)
# RNA: GGGAGACAAGAAUAACGCUCAAGUAGACUAAUGUGUGGAAGACAGCGGGUGGUUCGACAGGAGGCUCACAACAGGC
# modifications: 2'-NH2 pyrimidines
# B10: lib4-32 boundary (ssRNA)
# RNA: GGGGGAGAACGCGGAUCCGGCAACCCCAGGCGCAUAGCUUCCGAGUAGACAGGCGGGAGGGGUGGAUGUGGCGUCACG
# modifications: modified pyrimidines
# B11: 36t 2'-OMe/2'-F (mixed)
# mixed: CAGGCUACGGCACGTAGAGCAUCACCATGATCCUG
# modifications: 2'-OMe C8,C11,C25,C26,G9,G10,G17,G19,G35,A12,A24,A27,U34; 2'-F U6,U22,C23,C32,C33; 3'-3' idT
# B12: 26F (ssRNA)
# RNA: GGGAGGACGAUGCGGUCAAGCUUAACAGUCUGGCAAUGGCCAUUAUGGCGCCCCAGACGACUCGCCCGA
# modifications: 2'-F pyrimidines
# B13: 13F (ssRNA)
# RNA: GGGAGGACGAUGCGGCACCUUAGACCUGUCCUCCAAGCGUGAGUUGCUGUGGCCCAGACGACUCGCCCGA
# modifications: 2'-F pyrimidines
# B14: 14F (ssRNA)
# RNA: GGGAGGACGAUGCGGUGGUCUCCCAAUUCUAAACUUUCUCCAUCGUAUCUGGGCCAGACGACUCGCCCGA
# modifications: 2'-F pyrimidines
# Tests used:
# KGF (hKGF) [1] = molecular target: T1, KGF (hKGF) (Homo sapiens, UniProt P21781 P21781:32-194); assay: filter; equimolar halves; high -, low -; conditions: tags: Upstate Biotechnology
# T1 sequence: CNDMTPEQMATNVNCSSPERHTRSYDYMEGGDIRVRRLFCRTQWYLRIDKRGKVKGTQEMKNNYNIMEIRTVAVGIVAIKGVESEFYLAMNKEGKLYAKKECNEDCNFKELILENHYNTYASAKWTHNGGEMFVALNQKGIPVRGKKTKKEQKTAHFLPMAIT
# Procedure: In an effort to identify shorter KGF ligands that retained binding, the binding activity of various deletions of the shortest truncate of ligand 14F, namely 14F3′T were tested. Deletions were tested in all the structural elements of the proposed pseudoknot structure. RNA transcripts containing 2′F pyrimidines and 2′OH purines were obtained by in vitro transcription using synthetic DNA templates. The activity of each ligand is shown by scoring for both the high (H) and low (L) affinity component of the 14F3′T binding curve with +(active) or −(not active). Truncates T35 and T36 represent two complementary halves of 14F3′T molecule and were additionally tested as an equimolar mixture. The structural elements of the proposed pseudoknot structure are separated by (1) and are indicated by symbols S1 (stem 1), S2 (stem 2), L1 (loop 1) and L3 (loop 3). The proposed pseudoknot structure for 14F3′T is a non-H-type pseudoknot and lacks L2 (loop 2). The complementary sequences forming S1 (S1 and S1′) and S2 (S2 and S2′) are marked by single and double underlines respectfully. In the tabulated sequences, deleted bases were replaced with periods (.). […] Deletions in loop 3 (L3), however, were tolerated as long as one copy of the RRYY box remained intact. The shortest ligand that retained activity is T22 which is a 43-mer. […]
# KGF (hKGF) [2] = molecular target: T1, KGF (hKGF); assay: filter; biphasic, high affinity 33%; conditions: tags: Upstate Biotechnology; label: 32P
# KGF (hKGF) [3] = molecular target: T1, KGF (hKGF); assay: competition; PC-3 cells; conditions: tags: Upstate Biotechnology
# Procedure: (§1) PC-3 cells were plated in 24-well plates at about 10⁵ cells per well. Following growth for […], the cells were serum starved for 24 hours, washed two times with 500 μl of cold DPBS, and then incubated with 500 μl binding buffer (BB1; DPBS, 0.5 mM MgCl₂, 0.2% BSA. 0.02% sodium azide) containing various concentrations of ¹²⁵I-labeled KGF ranging from 0 to 0.8 nM. Following 3-3.5 hour incubation at 4° C., the binding mixes were aspirated and the well-adhered cells were washed two times with 1 ml BB1 and once with 1 ml BB1 supplemented with 0.5M NaCl. The remaining bound labeled hKGF was solubilized in 600 μl 0.5% SDS/0.1M NaOH and counted in a gamma counter (Beckmann). Nonspecific binding was determined in the presence of 100 fold molar excess of unlabeled hKGF. For competition assays, the labeled hKGF was kept constant at […], and varying concentrations of competitor molecules were included in the binding reactions ranging from 0-1,000 nM. Binding curves were fitted to the equation: […]
# (§2) A subset of these ligands was tested on the NIH3T3/FGFR-2. In determining the Ki values, it was assumed that 3T3 cells have 500,000 binding sites per cell and PC-3 cells have 5,000 binding sites per cell.
# PDGF-AB [4] = molecular target: T2, PDGF-AB (Homo sapiens, UniProt P04085;P01127 P04085:87-211,P01127:82-190); assay: efficient photo-crosslinking at 308 nm, to Phe84 of B chain; conditions: tags: R&D Systems, E. coli; chain copies: A/B chain dimer
# KGF (hKGF) [5] = molecular target: T1, KGF (hKGF); assay: filter; biphasic, high affinity 37%; Kd2 3.25 nM; PC-3 Ki 0.16 nM; conditions: tags: Upstate Biotechnology; label: 32P; pseudoknot (predicted)
# KGF (hKGF) [6] = molecular target: T1, KGF (hKGF); assay: competition; PC-3 cells; 6.8 nM on NIH3T3/FGFR-2; 830 pM Balb/MK; conditions: tags: Upstate Biotechnology; pseudoknot
# Procedure: as §1, §2
# KGF (hKGF) [7] = molecular target: T1, KGF (hKGF); assay: competition; PC-3 cells; 10.6 nM partial on NIH3T3/FGFR-2; conditions: tags: Upstate Biotechnology
# Procedure: as §1, §2
# KGF (hKGF) [8] = molecular target: T1, KGF (hKGF); assay: filter; DPBS, 37 C; PC-3 Ki […] nM; conditions: tags: Upstate Biotechnology; label: 32P
# KGF (hKGF) [9] = molecular target: T1, KGF (hKGF); assay: filter; second value 8.70 nM; conditions: tags: Upstate Biotechnology; label: 32P
# TGFβ1 [10] = molecular target: T3, TGFβ1 (Homo sapiens, UniProt P01137 P01137:279-390); assay: cell_activity; conditions: tags: Genentech or R&D Systems; chain copies: 2
# Procedure: MLEC-Pail/luc cells were plated at 3.2×10⁴ cells per well in a 96 well Falcon plate, in 100 μl of DME+10% fetal bovine serum overnight. Media was made from autoclaved water. The cells were washed three times ([…]) in serum free DME plus Solution A (1:1). Solution A is 30 mM Hepes pH 7.6, 10 mM glucose, 3.0 mM KCl, 131 mM NaCl, 1.0 mM disodium phosphate. Samples (100 μl) were added in DME containing 20 mM Hepes pH 7.5, and 0.1% BSA (Fluka, radioimmunoassay grade). All samples were in triplicate. After six hours at 37° C. in a 5% CO₂ incubator the media was removed and cells were washed three times (100 μl each) in cold PBS. Lysis buffer (75 μl) (Analytical Luminescence Laboratory) was added and the plates incubated on ice for 20 min. The plates were sealed and frozen at −80° C. until assayed. Samples (25 μl) were assayed for luciferase activity with the Enhanced Luciferase Assay Kit from Analytical Luminescence Laboratory (San Diego, Calif., USA) according to the manufacturer's instructions using the Berthold Microlumat LB96P luminometer.
# Ligands tested for inhibition of TGFβ1 activity were tested at a minimum of five concentrations. The ligands were serially diluted in DME, 20 mM Hepes pH 7.5, 0.1% Fluka BSA in polypropylene tubes and an equal volume of media containing 12 pM TGFβ1 was added to each tube, vortexed and transferred to the cells without further incubation.
# TGFβ1 [11] = molecular target: T3, TGFβ1; assay: filter; 37 C; cell IC50 210 nM; conditions: tags: Genentech; biotinylated version used in bead assay; chain copies: 2
# TGFβ1 [12] = molecular target: T3, TGFβ1; assay: filter; 37 C; cell IC50 124 nM; conditions: tags: Genentech; biotinylated version used in bead assay; chain copies: 2
# TGFβ1 [13] = molecular target: T3, TGFβ1; assay: filter; 37 C; cell IC50 17 nM; conditions: tags: Genentech; biotinylated version used in bead assay; chain copies: 2
# bFGF (Example 20) [14] = molecular target: T4, bFGF (Example 20) (UniProt P09038 P09038:143-288); assay: parent SELEX ligand
# TGFβ1 [15] = molecular target: T3, TGFβ1; assay: filter; 3' boundary experiment; conditions: tags: Genentech or R&D Systems; chain copies: 2
# PDGF-AB [16] = molecular target: T2, PDGF-AB; assay: filter; substitution pattern compatible with high affinity; conditions: tags: R&D Systems, E. coli; chain copies: A/B chain dimer; three-way helix junction
# KGF (hKGF) [17] = molecular target: T1, KGF (hKGF); assay: filter; biphasic, high affinity 43%; Kd2 2.55 nM; conditions: tags: Upstate Biotechnology; label: 32P
# bFGF (Example 20) [18] = molecular target: T4, bFGF (Example 20); assay: truncated ligand from deletion analysis
# KGF (hKGF) [19] = molecular target: T1, KGF (hKGF); assay: filter; biphasic, high affinity 28%; conditions: tags: Upstate Biotechnology; label: 32P
# KGF (hKGF) [20] = molecular target: T1, KGF (hKGF); assay: competition; PC-3 cells; 2.7 nM on NIH3T3/FGFR-2; 92 pM Balb/MK; conditions: tags: Upstate Biotechnology; pseudoknot
# Procedure: as §1, §2
# KGF (hKGF) [21] = molecular target: T1, KGF (hKGF); assay: filter; biphasic, high affinity 25-44%; text p221 gives 0.3-3 pM and 2-10 nM; PC-3 Ki 0.2 nM; conditions: tags: Upstate Biotechnology; label: 32P; pseudoknot (predicted)
# T3 sequence (P01137 279-390, one chain of several): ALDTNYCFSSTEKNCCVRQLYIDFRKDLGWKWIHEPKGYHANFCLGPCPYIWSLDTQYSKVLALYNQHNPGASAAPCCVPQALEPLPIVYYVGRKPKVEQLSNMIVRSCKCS
# T4 sequence (P09038 143-288, one chain of several): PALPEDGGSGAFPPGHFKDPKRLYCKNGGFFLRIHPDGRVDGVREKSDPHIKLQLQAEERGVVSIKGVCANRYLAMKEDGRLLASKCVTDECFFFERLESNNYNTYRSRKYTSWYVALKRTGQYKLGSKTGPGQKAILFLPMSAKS
# T2 sequence (P01127 82-190, chain 2 of 2, other chains not shown): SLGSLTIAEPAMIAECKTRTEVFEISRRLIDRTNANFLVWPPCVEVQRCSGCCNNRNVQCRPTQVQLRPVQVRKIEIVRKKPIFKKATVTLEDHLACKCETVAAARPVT
binder,measurement,setting,value
B1,binding result,KGF (hKGF) [1],no binding
B2,Kd,KGF (hKGF) [2],0.07 nM
same,IC50,KGF (hKGF) [3],20 nM
"TGGGAGGGCGCGTTCTTCGTGGTTACTTTTAGTCCCG (ssDNA, 5-iodo-dU at 24) [20t-I4]",binding result,PDGF-AB [4],binds
B3,Kd,KGF (hKGF) [5],0.05 nM
same,IC50,KGF (hKGF) [3]; pseudoknot,4 nM
same,Ki,KGF (hKGF) [6],0.16 nM
B4,Ki,KGF (hKGF) [7],1.4 nM
same,Kd,KGF (hKGF) [8],0.44 nM
same,IC50,KGF (hKGF) [3],6 nM
B5,Kd,KGF (hKGF) [9],2.05 nM
B6,IC50,TGFβ1 [10],210 nM
same,Kd,TGFβ1 [11],1.7 nM
B7,Kd,TGFβ1 [12],2.8 nM
B8,IC50,TGFβ1 [10],17 nM
same,Kd,TGFβ1 [13],3.4 nM
B9,binding result,bFGF (Example 20) [14],binds
B10,binding result,TGFβ1 [15],binds
B11,binding result,PDGF-AB [16],binds
B12,Kd,KGF (hKGF) [17],0.23 nM
"GGUGUGUGGAAGACAGCGGGUGGUUC (ssRNA, 2'-NH2 pyrimidines) [21A-t]",binding result,bFGF (Example 20) [18],binds
B13,Kd,KGF (hKGF) [19],0.03 nM
same,IC50,KGF (hKGF) [3],30 nM
B14,IC50,KGF (hKGF) [3]; pseudoknot,10 nM
same,Ki,KGF (hKGF) [20],0.2 nM
same,Kd,KGF (hKGF) [21],0.0134 nM
